Consider one substance from article PMC8092224.

The assay addresses RBD-ferritin fusion protein (SARS-CoV-2 spike RBD-… linker-H. pylori-bullfrog ferritin) (SARS-CoV-2 Wuhan-Hu-1 strain | bullfrog (Rana catesbeiana) | Helicobacter pylori). The assay is described as follows: SEC; concentrated supernatant (500-kDa MWCO TFF) on HiPrep 16/60 Sephacryl S-500 HR, degassed PBS, 0.4 ml/min; size from LMW/HMW calibration standards; self-assembly of the monomer into the nanoparticle.

For “RBD-ferritin fusion protein (SARS-CoV-2 spike RBD-… linker-H. pylori-bullfrog ferritin)”, the stoichiometry N was found to be 24.
